Data as given in patent publication EP4574844A1 (Numab Therapeutics AG, dated 2025).
Like-named read-outs stand apart in the source and are kept apart here. Blank lines part the entries; values can stand above or below the binder they belong to.

Columns and labels:
[1] = target: T1, human LILRB2 on the cell surface (human, UniProt Q8N423 22-597); assay: cell-based or functional assay
[2] = target: T1, human LILRB2 on the cell surface; assay: cell-based or functional assay; remark: listed apart in the source
[3] = target: T2, LILRA1 on transiently transfected CHO cells (UniProt O75019 17-489, limits assumed); assay: CELISA, transiently transfected CHO cells
T2 construct: whole, on cells; V5 tag at the N-terminus

[4] = target: T3, LILRA2 on transiently transfected CHO cells (UniProt Q8N149 24-483); assay: CELISA, transiently transfected CHO cells
T3 construct: whole, on cells; V5 tag at the N-terminus

[5] = target: T4, LILRA3 on transiently transfected CHO cells (UniProt Q8N6C8 24-439); assay: CELISA, transiently transfected CHO cells
T4 construct: whole, on cells; V5 tag at the N-terminus

[6] = target: T5, LILRA4 on transiently transfected CHO cells (UniProt P59901 24-499); assay: CELISA, transiently transfected CHO cells
T5 construct: whole, on cells; V5 tag at the N-terminus

[7] = target: T6, LILRA5 on transiently transfected CHO cells (UniProt A6NI73 42-299); assay: CELISA, transiently transfected CHO cells
T6 construct: whole, on cells; V5 tag at the N-terminus

[8] = target: T7, LILRA6 on transiently transfected CHO cells (UniProt Q6PI73 24-481); assay: CELISA, transiently transfected CHO cells
T7 construct: whole, on cells; V5 tag at the N-terminus

[9] = target: T8, LILRB1 on transiently transfected CHO cells (UniProt Q8NHL6 24-650); assay: CELISA, transiently transfected CHO cells
T8 construct: whole, on cells; V5 tag at the N-terminus

[10] = target: T9, LILRB3 on transiently transfected CHO cells (UniProt O75022 24-631, limits assumed); assay: CELISA, transiently transfected CHO cells
T9 construct: whole, on cells; V5 tag at the N-terminus

[11] = target: T10, LILRB4 on transiently transfected CHO cells (UniProt Q8NHJ6 22-448); assay: CELISA, transiently transfected CHO cells
T10 construct: whole, on cells; V5 tag at the N-terminus

[12] = target: T11, LILRB5 on transiently transfected CHO cells (UniProt O75023 24-590, limits assumed); assay: CELISA, transiently transfected CHO cells
T11 construct: whole, on cells; V5 tag at the N-terminus

recombinant human PDL1 [13] = target: T12, recombinant human PDL1 (human, UniProt Q9NZQ7 19-238, limits assumed); assay: SPR
T12 construct: SPR antigen; also called CD274; B7-H1

[14] = target: T13, recombinant cynomolgus PDL1 (cynomolgus monkey, UniProt G7PSE7 19-238); assay: SPR
T13 construct: also called cynom; PDL1

[15] = target: T14, human PD-L1 on the cell surface (human, UniProt Q9NZQ7 19-290); assay: cell-based or functional assay
Fc-tagged human PDL2 = target: T15, Fc-tagged human PDL2 (human, UniProt Q9BQ51 20-220, limits assumed); assay: SPR, Fc-tagged human PDL2 captured, scFv as analyte
T15 sequence (looked up): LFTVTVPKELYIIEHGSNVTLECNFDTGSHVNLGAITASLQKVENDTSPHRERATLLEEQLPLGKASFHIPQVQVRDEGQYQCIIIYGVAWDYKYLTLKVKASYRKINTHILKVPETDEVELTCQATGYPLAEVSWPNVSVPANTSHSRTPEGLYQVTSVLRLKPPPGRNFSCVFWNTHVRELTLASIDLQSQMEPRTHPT

[16] = target: T14, human PD-L1 on the cell surface; assay: cell-based or functional assay; remark: listed apart in the source
[17] = target: T16, human CD47 on the cell surface (human, UniProt Q08722 19-323); assay: cell-based or functional assay
[18] = target: T14, human PD-L1 on the cell surface; assay: cell-based or functional assay; remark: listed apart in the source
[19] = target: T16, human CD47 on the cell surface; assay: cell-based or functional assay; remark: listed apart in the source
recombinant human CD47 = recombinant human CD47 (human, UniProt Q08722 19-139, limits assumed); assay: SPR, antigen immobilised, antibody as analyte
recombinant human PDL1 [20] = target: T12, recombinant human PDL1; assay: SPR, antigen immobilised, antibody as analyte
recombinant human LILRB2 = target: T17, recombinant human LILRB2 (human, UniProt Q8N423 22-460, limits assumed); assay: SPR, LILRB2 immobilised, scFv as analyte
T17 construct: also called ILT4

[21] = target: T1, human LILRB2 on the cell surface; assay: flow cytometry, CHO K1 cells expressing human LILRB2
[22] = target: T1, human LILRB2 on the cell surface; assay: flow cytometry, CHO cells expressing LILRB2; competitor HLA-G tetramer
[23] = target: T1, human LILRB2 on the cell surface; assay: flow cytometry, CHO cells expressing LILRB2; competitor HLA-A0301 dextramer
[24] = target: T1, human LILRB2 on the cell surface; assay: flow cytometry, CHO cells expressing LILRB2; competitor HLA-G tetramer; reference PRO2518

T17 sequence (Q8N423 22-460 limits assumed): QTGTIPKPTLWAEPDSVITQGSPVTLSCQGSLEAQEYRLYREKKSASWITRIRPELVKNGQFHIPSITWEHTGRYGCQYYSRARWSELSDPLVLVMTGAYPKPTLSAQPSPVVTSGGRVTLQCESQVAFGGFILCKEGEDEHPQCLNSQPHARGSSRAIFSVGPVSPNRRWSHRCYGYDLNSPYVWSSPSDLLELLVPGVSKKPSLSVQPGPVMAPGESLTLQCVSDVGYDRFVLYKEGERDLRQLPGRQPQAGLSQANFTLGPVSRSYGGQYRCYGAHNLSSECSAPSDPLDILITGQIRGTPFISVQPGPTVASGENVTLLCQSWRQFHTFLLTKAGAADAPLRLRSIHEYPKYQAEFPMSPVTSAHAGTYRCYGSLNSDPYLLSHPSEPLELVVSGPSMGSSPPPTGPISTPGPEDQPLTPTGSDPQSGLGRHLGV
T1 sequence (Q8N423 22-597): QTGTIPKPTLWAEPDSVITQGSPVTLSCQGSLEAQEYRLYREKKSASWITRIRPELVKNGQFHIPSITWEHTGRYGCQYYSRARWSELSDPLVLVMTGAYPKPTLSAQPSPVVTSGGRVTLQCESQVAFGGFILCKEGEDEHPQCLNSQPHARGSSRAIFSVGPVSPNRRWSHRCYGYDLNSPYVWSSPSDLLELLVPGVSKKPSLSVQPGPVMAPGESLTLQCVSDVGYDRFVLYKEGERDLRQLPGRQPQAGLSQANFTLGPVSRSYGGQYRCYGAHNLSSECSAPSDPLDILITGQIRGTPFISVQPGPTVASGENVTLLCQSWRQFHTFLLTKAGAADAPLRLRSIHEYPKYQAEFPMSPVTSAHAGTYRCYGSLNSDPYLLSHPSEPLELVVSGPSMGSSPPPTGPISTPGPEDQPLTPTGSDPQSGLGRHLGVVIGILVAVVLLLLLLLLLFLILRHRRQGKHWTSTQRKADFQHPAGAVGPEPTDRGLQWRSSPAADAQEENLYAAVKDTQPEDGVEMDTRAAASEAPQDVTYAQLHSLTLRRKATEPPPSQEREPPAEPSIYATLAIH
T13 sequence (G7PSE7 entry or part of it): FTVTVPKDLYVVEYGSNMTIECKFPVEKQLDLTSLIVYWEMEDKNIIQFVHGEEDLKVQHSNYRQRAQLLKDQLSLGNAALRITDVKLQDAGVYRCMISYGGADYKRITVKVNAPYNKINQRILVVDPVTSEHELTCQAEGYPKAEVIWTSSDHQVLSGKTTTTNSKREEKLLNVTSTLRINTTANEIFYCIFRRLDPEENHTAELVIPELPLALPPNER
T8 sequence (Q8NHL6 24-650): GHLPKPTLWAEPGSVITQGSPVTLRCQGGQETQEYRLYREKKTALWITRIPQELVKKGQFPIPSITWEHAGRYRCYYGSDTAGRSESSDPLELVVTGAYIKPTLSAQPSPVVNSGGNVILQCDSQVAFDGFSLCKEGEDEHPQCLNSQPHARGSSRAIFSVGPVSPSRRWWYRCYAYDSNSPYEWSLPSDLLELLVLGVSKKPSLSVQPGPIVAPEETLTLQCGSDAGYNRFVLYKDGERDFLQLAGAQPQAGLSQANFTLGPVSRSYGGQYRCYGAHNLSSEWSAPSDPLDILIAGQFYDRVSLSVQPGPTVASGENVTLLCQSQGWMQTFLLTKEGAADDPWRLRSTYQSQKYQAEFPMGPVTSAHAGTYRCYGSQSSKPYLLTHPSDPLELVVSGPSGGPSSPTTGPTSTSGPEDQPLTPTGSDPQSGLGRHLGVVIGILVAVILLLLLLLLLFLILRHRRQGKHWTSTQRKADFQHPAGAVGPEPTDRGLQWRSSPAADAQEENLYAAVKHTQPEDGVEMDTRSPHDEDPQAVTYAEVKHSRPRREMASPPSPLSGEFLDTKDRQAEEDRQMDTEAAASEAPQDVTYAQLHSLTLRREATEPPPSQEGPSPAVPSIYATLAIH
T6 sequence (A6NI73 42-299): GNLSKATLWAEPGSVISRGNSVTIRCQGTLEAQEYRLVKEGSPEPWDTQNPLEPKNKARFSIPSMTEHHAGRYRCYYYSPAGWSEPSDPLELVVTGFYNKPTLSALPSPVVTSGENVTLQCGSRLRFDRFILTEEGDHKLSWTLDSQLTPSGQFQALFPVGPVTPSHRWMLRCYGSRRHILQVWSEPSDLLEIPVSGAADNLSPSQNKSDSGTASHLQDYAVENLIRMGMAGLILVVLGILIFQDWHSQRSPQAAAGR
T4 sequence (Q8N6C8 24-439): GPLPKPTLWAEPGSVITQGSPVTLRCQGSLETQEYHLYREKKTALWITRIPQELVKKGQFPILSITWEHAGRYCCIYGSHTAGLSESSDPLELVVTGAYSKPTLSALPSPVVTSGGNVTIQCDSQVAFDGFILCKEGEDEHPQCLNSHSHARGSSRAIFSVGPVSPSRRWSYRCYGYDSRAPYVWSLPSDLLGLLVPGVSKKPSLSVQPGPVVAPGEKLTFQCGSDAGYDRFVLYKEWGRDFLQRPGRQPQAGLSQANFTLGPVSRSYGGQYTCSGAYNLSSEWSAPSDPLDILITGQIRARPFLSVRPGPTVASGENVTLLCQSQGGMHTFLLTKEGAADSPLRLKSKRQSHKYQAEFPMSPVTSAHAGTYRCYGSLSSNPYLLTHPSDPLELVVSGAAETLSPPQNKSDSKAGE
T2 sequence (O75019 17-489 limits assumed): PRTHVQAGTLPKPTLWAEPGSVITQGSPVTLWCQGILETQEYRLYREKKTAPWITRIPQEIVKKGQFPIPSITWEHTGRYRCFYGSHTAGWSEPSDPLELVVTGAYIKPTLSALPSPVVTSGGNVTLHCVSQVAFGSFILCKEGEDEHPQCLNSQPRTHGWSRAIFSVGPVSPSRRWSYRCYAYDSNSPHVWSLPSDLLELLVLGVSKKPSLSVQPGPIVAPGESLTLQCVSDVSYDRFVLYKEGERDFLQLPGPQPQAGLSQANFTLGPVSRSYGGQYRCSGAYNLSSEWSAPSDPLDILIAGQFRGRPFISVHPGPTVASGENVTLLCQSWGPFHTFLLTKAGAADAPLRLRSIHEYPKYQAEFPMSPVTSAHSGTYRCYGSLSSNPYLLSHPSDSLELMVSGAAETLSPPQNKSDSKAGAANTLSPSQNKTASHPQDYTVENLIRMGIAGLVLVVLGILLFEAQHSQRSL
T7 sequence (Q6PI73 24-481): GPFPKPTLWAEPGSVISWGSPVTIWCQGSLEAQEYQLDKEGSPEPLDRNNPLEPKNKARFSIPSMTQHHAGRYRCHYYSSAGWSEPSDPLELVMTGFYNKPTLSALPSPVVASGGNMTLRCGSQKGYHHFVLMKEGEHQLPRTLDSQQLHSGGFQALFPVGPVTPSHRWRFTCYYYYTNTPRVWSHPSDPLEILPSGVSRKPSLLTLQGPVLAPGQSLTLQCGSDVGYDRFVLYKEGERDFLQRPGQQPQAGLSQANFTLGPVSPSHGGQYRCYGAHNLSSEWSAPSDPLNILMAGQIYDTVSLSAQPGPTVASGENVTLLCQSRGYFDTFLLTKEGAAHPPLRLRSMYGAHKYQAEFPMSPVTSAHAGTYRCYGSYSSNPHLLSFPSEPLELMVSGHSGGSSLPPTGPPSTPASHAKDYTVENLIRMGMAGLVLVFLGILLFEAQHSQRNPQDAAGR
T3 sequence (Q8N149 24-483): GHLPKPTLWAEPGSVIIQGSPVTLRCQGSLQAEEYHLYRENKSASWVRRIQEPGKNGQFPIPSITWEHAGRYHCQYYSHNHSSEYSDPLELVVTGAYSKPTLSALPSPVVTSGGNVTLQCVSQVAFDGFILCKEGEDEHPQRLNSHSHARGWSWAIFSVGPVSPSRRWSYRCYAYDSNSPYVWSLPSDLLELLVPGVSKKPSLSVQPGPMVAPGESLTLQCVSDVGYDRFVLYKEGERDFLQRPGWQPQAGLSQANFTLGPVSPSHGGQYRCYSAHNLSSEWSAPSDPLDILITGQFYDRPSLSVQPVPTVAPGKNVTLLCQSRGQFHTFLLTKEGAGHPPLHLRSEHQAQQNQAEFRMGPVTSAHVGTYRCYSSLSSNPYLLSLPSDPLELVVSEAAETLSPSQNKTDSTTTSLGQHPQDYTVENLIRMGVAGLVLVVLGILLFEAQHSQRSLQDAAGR
T11 sequence (O75023 24-590 limits assumed): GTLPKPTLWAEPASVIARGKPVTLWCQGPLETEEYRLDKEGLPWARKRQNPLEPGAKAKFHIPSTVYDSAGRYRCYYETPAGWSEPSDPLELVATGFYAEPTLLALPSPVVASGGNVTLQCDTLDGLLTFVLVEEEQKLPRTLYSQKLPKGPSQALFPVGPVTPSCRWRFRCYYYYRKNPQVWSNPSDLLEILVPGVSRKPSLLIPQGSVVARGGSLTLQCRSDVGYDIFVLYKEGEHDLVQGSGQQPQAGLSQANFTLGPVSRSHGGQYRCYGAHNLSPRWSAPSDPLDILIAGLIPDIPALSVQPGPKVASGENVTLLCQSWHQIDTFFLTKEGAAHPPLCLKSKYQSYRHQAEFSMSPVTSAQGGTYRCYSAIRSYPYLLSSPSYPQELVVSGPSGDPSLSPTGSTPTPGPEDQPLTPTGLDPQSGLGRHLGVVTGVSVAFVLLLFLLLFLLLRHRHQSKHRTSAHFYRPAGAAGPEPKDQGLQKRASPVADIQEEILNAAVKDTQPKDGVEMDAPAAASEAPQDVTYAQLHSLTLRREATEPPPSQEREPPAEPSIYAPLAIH
T5 sequence (P59901 24-499): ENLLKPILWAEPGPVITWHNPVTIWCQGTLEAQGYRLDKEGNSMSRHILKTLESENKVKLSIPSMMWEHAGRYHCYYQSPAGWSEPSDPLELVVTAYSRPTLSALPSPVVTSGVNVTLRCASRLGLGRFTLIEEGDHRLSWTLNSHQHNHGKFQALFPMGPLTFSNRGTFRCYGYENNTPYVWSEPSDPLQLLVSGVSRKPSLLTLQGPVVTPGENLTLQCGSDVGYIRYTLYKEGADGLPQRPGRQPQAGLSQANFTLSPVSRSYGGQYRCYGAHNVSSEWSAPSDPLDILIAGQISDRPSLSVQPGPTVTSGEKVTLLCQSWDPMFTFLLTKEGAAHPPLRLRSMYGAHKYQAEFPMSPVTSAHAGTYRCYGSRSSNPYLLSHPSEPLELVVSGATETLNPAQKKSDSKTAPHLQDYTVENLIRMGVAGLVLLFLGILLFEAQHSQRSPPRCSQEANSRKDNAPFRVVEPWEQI

B2: PRO1347 (scFv)
scFv: DIQMTQSPASLSASVGDRVTITCQASQSIGTYLAWYQQKPGKPPKLLIYRAFILASGVPSRFSGSGSGTDFTLTISSLQPEDFATYYCQSNFYSDSTTIGPNAFGTGTKVTVLGGGGGSGGGGSGGGGSGGGGSEVQLVESGGGLVQPGGSLRLSCAASGFSFNSDYWIYWVRQAPGKGLEWIACIYGGSSGNTQYASWAQGRFTISRDNSKNTVYLQMNSLRAEDTAVYFCARGYVDYGGATDLWGQGTLVTVSS
notes: anti-PDL1 scFv; also called 37-20-B03-sc09
Kd (recombinant human PDL1 [13]): 0.0109 nM
koff (recombinant human PDL1 [13]): 6.64e-05 s⁻¹
kon (recombinant human PDL1 [13]): 7.38e+06 M⁻¹ s⁻¹
Kd [14]: 0.0127 nM
koff [14]: 8.77e-05 s⁻¹
kon [14]: 6.88e+06 M⁻¹ s⁻¹
PDL1/PD-1 EC50 [nM], NFAT reporter gene assay [15]: 0.28 nM
PDL1/PD-1 Max. inhibition (rel. to avelumab) [%] [15]: 100%
binding result (Fc-tagged human PDL2): no binding (tested: 180 nM)

B4: PRO1392 (scFv)
scFv: DIQMTQSPSSLSASVGDRVTITCQASQSINDYLAWYQQKPGKAPKLLIYKASTLASGVPSRFSGSGSGTDFTLTISSLQPEDFATYYCQQGYIITDIDNVFGTGTKVTVLGGGGGSGGGGSGGGGSGGGGSQVQLQESGPGLVKPSETLSLTCKASGFSFSSGYDMCWVRQPPGKGLEWIACVVAGSVDITYYASWAKGRVTISKDSSKNQVSLKLSSVTAADTAVYYCARKDAYSDAFNLWGQGTLVTVSS
notes: anti-PDL1 scFv (VL-linker-VH); also called 33-03-G02-sc18
Kd (recombinant human PDL1 [13]): 0.0086 nM
koff (recombinant human PDL1 [13]): 4.8e-05 s⁻¹
kon (recombinant human PDL1 [13]): 5.6e+06 M⁻¹ s⁻¹
Kd [14]: 0.0065 nM
koff [14]: 3.4e-05 s⁻¹
kon [14]: 5.2e+06 M⁻¹ s⁻¹
PDL1/PD-1 EC50 [nM], NFAT reporter gene assay [15]: 0.97 nM
PDL1/PD-1 Max. inhibition (rel. to avelumab) [%] [15]: 104%
binding result (Fc-tagged human PDL2): no binding (tested: 180 nM)

B5: PRO3696 (scFv)
scFv: DVQMTQSPSSLSASVGDRVTITCQASQSIGLNLAWYQQKPGKPPKLLIYAGGYLASGVSSRFSGSGSGTDFTLTISSLQPEDFATYYCQSTYDGSSFVFAFGTGTKVTVLGGGGGSGGGGSGGGGSGGGGSQEQLVESGGGLVQPGGSLRLSCAASGFSFSSSSYMCWVRQAPGKGLEWIACMVTGSSDDTDYASWAKGRFTISKDNSKNTVYLQMNSLRAEDSAVYFCARAGSAPLWGQGTLVKVSS
notes: anti-LILRB2 scFv; also called 69-01-E02-sc06
Kd (recombinant human LILRB2): 0.226 nM
koff (recombinant human LILRB2): 0.000166 s⁻¹
kon (recombinant human LILRB2): 736000 M⁻¹ s⁻¹
EC50 [21]: 0.796 nM
IC50 [22]: 1.08 nM
IC50 [23]: 0.867 nM
Rel. max. inhibition % (rel. to J-19) [24]: 98.4%

Results, then the binder that gave them:

CD86 EC50 [nM], re-polarization of M2 macrophages [1]: 0.119 nM
CD163 EC50 [nM], re-polarization of M2 macrophages [1]: 0.072 nM
CD206 EC50 [nM], re-polarization of M2 macrophages [1]: 0.203 nM
IL-1β EC50 [nM], LPS-driven cytokine secretion [2]: 0.248 nM
IL-6 EC50 [nM], LPS-driven cytokine secretion [2]: 0.153 nM
TNF-α EC50 [nM], LPS-driven cytokine secretion [2]: 0.169 nM
binding result [3]: no binding (tested: up to 100 nM)
binding result [4]: no binding (tested: up to 100 nM)
binding result [5]: no binding (tested: up to 100 nM)
binding result [6]: no binding (tested: up to 100 nM)
binding result [7]: no binding (tested: up to 100 nM)
binding result [8]: no binding (tested: up to 100 nM)
binding result [9]: no binding (tested: up to 100 nM)
binding result [10]: no binding (tested: up to 100 nM)
binding result [11]: no binding (tested: up to 100 nM)
binding result [12]: no binding (tested: up to 100 nM)
B1: PRO4710 (antibody, human IgG4 S228P, kappa, V domains shown)
VH: QQLVESGGGLVQPGGSLRLSCAASGFSFTNNYYMCWVRQAPGKGLEWIACMLVGAWGNTYYASWANGRFTISKDNSKNTVYLQMNSLRAEDTAVYFCARARDYTWTLGGDPETSGFNLWGQGTLVTVSS
VL: DVQMTQSPSSLSASVGDRVTITCQASQSIGSNLAWYQQKPGKPPKLLIYKGGTLESGVPSRFSGSGSGTDFTLTISSLQPEDFATYYCQSTAGSSRSGNYGYVFGQGTKVEIKR
notes: anti-LILRB2 IgG4; also called 68-18-E11-sc07 IgG4; IgG4 variant of scFv PRO3744

PD-L1 driven EC50 [nM], phagocytosis of H292 cells [16]: 0.18 nM
CD47 driven EC50 [nM], phagocytosis of A375 cells [17]: 27.5 nM
CD47 driven EC50 [nM], phagocytosis of H292 cells [17]: 28.4 nM
PD-L1 driven EC50 [nM], phagocytosis of H292 cells [18]: 0.19 nM
CD47 driven EC50 [nM], phagocytosis of H292 cells [19]: 28.2 nM
Kd (recombinant human CD47): 49.7 nM
koff (recombinant human CD47): 0.0265 s⁻¹
kon (recombinant human CD47): 533000 M⁻¹ s⁻¹
Kd (recombinant human PDL1 [20]): 0.0133 nM
koff (recombinant human PDL1 [20]): 2.72e-05 s⁻¹
kon (recombinant human PDL1 [20]): 2.05e+06 M⁻¹ s⁻¹
B3: PRO5053 (antibody)
chain 1: DVQMTQSPSSLSASVGDRVTITCQASQSISSWVSWYQQKPGKPPKLLIYRGGYLESGVPSRFSASGSGTDFTLTISSLQPEDFATYYCQSTDSSTYGGAFGCGTKVTVLGGGGGSGGGGSGGGGSGGGGSQQVVESGGGLVQPGGSLRLSCAVSGIDLNSYAMTWVRQAPGKCLEWIGYIGSASSTYYASWASGRFTISKDNSKNTVYLQMNSLRAEDSAVYFCARGSTYINIWGQGTLVKVSSEPKSSDKTHTCPPCPAPELLGGPSVFLFPPKPKDTLMISRTPEVTCVVVDVSHEDPEVKFNWYVDGVEVHNAKTKPREEQYNSTYRVVSVLTVLHQDWLNGKEYKCKVSNKALPAPIEKTISKAKGQPREPQVYTLPPCREEMTKNQVSLSCAVKGFYPSDIAVEWESNGQPENNYKTTPPVLDSDGSFFLVSKLTVDKSRWQQGNVFSCSVMHEALHNHYTQKSLSLSPGKGGGGSGGGGSDIQMTQSPSSLSASVGDRVTITCQSSESVYSNNQLSWYQQKPGQPPKLLIYDASDLASGVPSRFSGSGSGTDFTLTISSLQPEDFATYYCAGGFSSSSDTAFGCGTKLTVLGGGGGSGGGGSGGGGSGGGGSEVQLVESGGGLVQPGGSLRLSCAASGFSLSSNAMGWVRQAPGKCLEYIGIISVGGFTYYASWAKGRFTISRDNSKNTVYLQMNSLRAEDSATYFCARDRHGGDSSGAFYLWGQGTLVKVSS
chain 2: not shown
notes: anti-PDL1 x CD47 x (hSA dummy domain); also called PRO5052 with dummy domain for LILRB2-BD
